{
  "source": "the supplement of paper PMC9112550",
  "about": "“Optimization of the antimicrobial peptide Bac7 by deep mutational scanning” (BMC Biology, 2022);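 further: peptides expressed intracellularly from a pBAD plasmid library in pooled LB shake-flask culture, induced with 0.3% L-arabinose, DNA abundance read by NGS, three biological replicates, DESeq2 with apeglm shrinkage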",
  "data": [
    {"test_system": "Escherichia coli TOP10", "assay": "shrunken log2 fold change of peptide-encoding DNA abundance (4.5 h post-induction vs induction); higher = less antimicrobial activity (less host growth inhibition)", "settings": "time post-induction: 4.5 h; library: site-saturation at positions 5, 18, 19, 20", "values": [
      {"sequence": "RRIRFRPPRLPRPRPRPMVKPRP", "shrunken log2 fold change": -0.219},
      {"sequence": "RRIRERPPRLPRPRPRPTKDPRP", "shrunken log2 fold change": -0.239},
      {"sequence": "RRIRKRPPRLPRPRPRPKRPPRP", "shrunken log2 fold change": 0.552},
      {"sequence": "RRIRWRPPRLPRPRPRPYQLPRP", "shrunken log2 fold change": -0.26},
      {"sequence": "RRIRPRPPRLPRPRPRPNMWPRP", "shrunken log2 fold change": -0.084},
      {"sequence": "RRIRFRPPRLPRPRPRPPLWPRP", "shrunken log2 fold change": 0.46},
      {"sequence": "RRIRCRPPRLPRPRPRPICTPRP", "shrunken log2 fold change": -0.307},
      {"sequence": "RRIRERPPRLPRPRPRPFVPPRP", "shrunken log2 fold change": -0.507},
      {"sequence": "RRIRSRPPRLPRPRPRPQRAPRP", "shrunken log2 fold change": 0.123},
      {"sequence": "RRIRWRPPRLPRPRPRPLQYPRP", "shrunken log2 fold change": -0.133},
      {"sequence": "RRIRQRPPRLPRPRPRPNTFPRP", "shrunken log2 fold change": -0.666},
      {"sequence": "RRIRSRPPRLPRPRPRPKNRPRP", "shrunken log2 fold change": 0.0193},
      {"sequence": "RRIRGRPPRLPRPRPRPPLTPRP", "shrunken log2 fold change": 0.971},
      {"sequence": "RRIRGRPPRLPRPRPRPYMNPRP", "shrunken log2 fold change": -0.23},
      {"sequence": "RRIRNRPPRLPRPRPRPRRMPRP", "shrunken log2 fold change": 0.207},
      {"sequence": "RRIRCRPPRLPRPRPRPYYPPRP", "shrunken log2 fold change": -1.27},
      {"sequence": "RRIRVRPPRLPRPRPRPPIIPRP", "shrunken log2 fold change": -0.222},
      {"sequence": "RRIRPRPPRLPRPRPRPCFGPRP", "shrunken log2 fold change": 1.01},
      {"sequence": "RRIRNRPPRLPRPRPRPKRWPRP", "shrunken log2 fold change": 0.0633},
      {"sequence": "RRIRQRPPRLPRPRPRPDQYPRP", "shrunken log2 fold change": -0.0114},
      {"sequence": "RRIRHRPPRLPRPRPRPVCMPRP", "shrunken log2 fold change": -0.0845},
      {"sequence": "RRIRCRPPRLPRPRPRPKMQPRP", "shrunken log2 fold change": 0.103},
      {"sequence": "RRIRQRPPRLPRPRPRPSHSPRP", "shrunken log2 fold change": -0.102},
      {"sequence": "RRIRCRPPRLPRPRPRPVEGPRP", "shrunken log2 fold change": 0.0501},
      {"sequence": "RRIRSRPPRLPRPRPRPWGRPRP", "shrunken log2 fold change": 0.196},
      {"sequence": "RRIRMRPPRLPRPRPRPHTIPRP", "shrunken log2 fold change": 0.0593},
      {"sequence": "RRIRKRPPRLPRPRPRPKSVPRP", "shrunken log2 fold change": 0.451},
      {"sequence": "RRIRKRPPRLPRPRPRPGQLPRP", "shrunken log2 fold change": 0.236},
      {"sequence": "RRIRWRPPRLPRPRPRPRCYPRP", "shrunken log2 fold change": -0.0698},
      {"sequence": "RRIRKRPPRLPRPRPRPQEMPRP", "shrunken log2 fold change": -0.00136},
      {"sequence": "RRIRARPPRLPRPRPRPSFNPRP", "shrunken log2 fold change": -0.268},
      {"sequence": "RRIRRRPPRLPRPRPRPCSMPRP", "shrunken log2 fold change": 0.464},
      {"sequence": "RRIRWRPPRLPRPRPRPVGKPRP", "shrunken log2 fold change": 0.107},
      {"sequence": "RRIRARPPRLPRPRPRPCRDPRP", "shrunken log2 fold change": -0.0411},
      {"sequence": "RRIRPRPPRLPRPRPRPPYEPRP", "shrunken log2 fold change": -0.145},
      {"sequence": "RRIRPRPPRLPRPRPRPERNPRP", "shrunken log2 fold change": -0.307},
      {"sequence": "RRIRHRPPRLPRPRPRPHPAPRP", "shrunken log2 fold change": 0.21},
      {"sequence": "RRIRGRPPRLPRPRPRPCQCPRP", "shrunken log2 fold change": 0.268},
      {"sequence": "RRIRSRPPRLPRPRPRPTFEPRP", "shrunken log2 fold change": 0.0262},
      {"sequence": "RRIRMRPPRLPRPRPRPCFVPRP", "shrunken log2 fold change": -0.103},
      {"sequence": "RRIRGRPPRLPRPRPRPCAMPRP", "shrunken log2 fold change": -0.102},
      {"sequence": "RRIRTRPPRLPRPRPRPAARPRP", "shrunken log2 fold change": 0.374},
      {"sequence": "RRIRRRPPRLPRPRPRPMKPPRP", "shrunken log2 fold change": 0.0733},
      {"sequence": "RRIRERPPRLPRPRPRPTNYPRP", "shrunken log2 fold change": -0.068},
      {"sequence": "RRIRKRPPRLPRPRPRPTSDPRP", "shrunken log2 fold change": 0.492},
      {"sequence": "RRIRARPPRLPRPRPRPLSAPRP", "shrunken log2 fold change": 0.636},
      {"sequence": "RRIRIRPPRLPRPRPRPHTRPRP", "shrunken log2 fold change": -0.35},
      {"sequence": "RRIRQRPPRLPRPRPRPLDIPRP", "shrunken log2 fold change": -0.163},
      {"sequence": "RRIRSRPPRLPRPRPRPNRIPRP", "shrunken log2 fold change": -0.304},
      {"sequence": "RRIRERPPRLPRPRPRPENMPRP", "shrunken log2 fold change": 0.000515},
      {"sequence": "RRIRFRPPRLPRPRPRPKQLPRP", "shrunken log2 fold change": -0.123},
      {"sequence": "RRIRERPPRLPRPRPRPSWAPRP", "shrunken log2 fold change": -0.24},
      {"sequence": "RRIRCRPPRLPRPRPRPNIKPRP", "shrunken log2 fold change": -0.647},
      {"sequence": "RRIRNRPPRLPRPRPRPDLDPRP", "shrunken log2 fold change": 0.0497},
      {"sequence": "RRIRPRPPRLPRPRPRPTANPRP", "shrunken log2 fold change": 0.297},
      {"sequence": "RRIRPRPPRLPRPRPRPGRQPRP", "shrunken log2 fold change": 0.742},
      {"sequence": "RRIRCRPPRLPRPRPRPVQSPRP", "shrunken log2 fold change": 0.132},
      {"sequence": "RRIRWRPPRLPRPRPRPCCAPRP", "shrunken log2 fold change": 0.47},
      {"sequence": "RRIRDRPPRLPRPRPRPTCWPRP", "shrunken log2 fold change": 1.09},
      {"sequence": "RRIRGRPPRLPRPRPRPSSEPRP", "shrunken log2 fold change": 0.351},
      {"sequence": "RRIRSRPPRLPRPRPRPTYLPRP", "shrunken log2 fold change": -0.399},
      {"sequence": "RRIRNRPPRLPRPRPRPCIEPRP", "shrunken log2 fold change": -0.117},
      {"sequence": "RRIRDRPPRLPRPRPRPIVMPRP", "shrunken log2 fold change": -0.0257},
      {"sequence": "RRIRNRPPRLPRPRPRPKHSPRP", "shrunken log2 fold change": -0.187},
      {"sequence": "RRIRVRPPRLPRPRPRPHIVPRP", "shrunken log2 fold change": -0.165},
      {"sequence": "RRIRQRPPRLPRPRPRPCNQPRP", "shrunken log2 fold change": -0.213},
      {"sequence": "RRIRIRPPRLPRPRPRPRWFPRP", "shrunken log2 fold change": 0.555},
      {"sequence": "RRIRKRPPRLPRPRPRPMAMPRP", "shrunken log2 fold change": 0.325},
      {"sequence": "RRIRVRPPRLPRPRPRPGMPPRP", "shrunken log2 fold change": 0.0671},
      {"sequence": "RRIRLRPPRLPRPRPRPTRVPRP", "shrunken log2 fold change": 0.389},
      {"sequence": "RRIRIRPPRLPRPRPRPKMEPRP", "shrunken log2 fold change": -0.103},
      {"sequence": "RRIRGRPPRLPRPRPRPPSAPRP", "shrunken log2 fold change": 1.07},
      {"sequence": "RRIRRRPPRLPRPRPRPTVQPRP", "shrunken log2 fold change": 0.113},
      {"sequence": "RRIRDRPPRLPRPRPRPHSNPRP", "shrunken log2 fold change": 0.0359},
      {"sequence": "RRIRQRPPRLPRPRPRPLCQPRP", "shrunken log2 fold change": -0.304}
    ]}
  ]
}
